# Key:
# Assay in all cases: pull-down binding Z-score (relative to library population); higher = stronger binding
# [1] = tested on: G-clamp-N3 (biotin conjugate); settings: RNA library: Library-1 (pre-miRNA loops + repeats)
# Summary of the method: (§1)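 Binding is given as a Z-score against the library mean and standard deviation, calculated after removing the beads-only signal and averaging barcoded replicate probes without their highest and lowest values. Cy5- or Cy3-end-labelled RNA library (1 μg) was heat-folded in phosphate/NaCl/KCl buffer and incubated 60 min at 25 °C with streptavidin beads bearing 100 pmol of biotin-conjugated small molecule. After three washes, RNA eluted in hot SDS was hybridised to a DNA barcode microarray for 20 h at 55.5 °C.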
# [2] = tested on: TO-3-N3 (biotin conjugate); settings: RNA library: Library-2
# Summary of the method: as §1
# [3] = tested on: TO-3-N3-2 (biotin conjugate); settings: RNA library: Library-2
# Summary of the method: as §1
# [4] = tested on: TO-N3 (biotin conjugate); settings: RNA library: Library-2
# Summary of the method: as §1
# [5] = tested on: TO-N3-2 (biotin conjugate); settings: RNA library: Library-2
# Summary of the method: as §1
Sequence,pull-down binding Z-score [1],pull-down binding Z-score [2],pull-down binding Z-score [3],pull-down binding Z-score [4],pull-down binding Z-score [5]
UUUGCCUCUCUCAGAAAAUAGAGUCAAA [hsa-mir-4694],0.239,0.229,-0.0805,0.157,-0.759
UGGCAAUUCAGUAAAAAUGCUCA [hsa-mir-6715b],-0.751,-0.296,-0.14,-0.281,0.143
CUGGGAGGUGUGAUAUCGUGGUUCCUGG [hsa-mir-3689c],0.718,1.02,0.136,1.13,0.744
UAUAGGAAGGAAAUCUUAU [hsa-mir-6129],-0.636,-0.671,-0.279,-0.641,-0.517
GGCUCCUGGCGCUGAUGCC [hsa-mir-6886],-0.347,0.85,0.297,1.15,1.15
CUGUCUGUUGUCUAAGAAAAGAUCG [hsa-mir-517c_517b],0.565,-0.481,0.294,-0.0242,0.202
CAUUGUAACAUGAUAGUG [hsa-mir-4264],0.389,-0.752,-0.295,-0.441,-0.45
UUGGUGACAGCAGCAGUAGAGUUGCCAG [hsa-mir-6501],0.0434,-0.632,-0.445,-0.35,0.272
CGGAAUUCUCCAGAGCCUCUG [hsa-mir-6889],-0.773,0.188,0.0162,0.453,0.584
UGGGCUCCCCUAGACUAGGACUCCA [hsa-mir-1825],0.254,-0.367,-0.507,-0.37,0.508
GCUUAUGGGGAUAUUGUGGUUGAUCUGUUCUAUCCAGAUGAC [hsa-mir-1261],0.854,0.283,0.0944,0.676,0.626
UAGAUGUUAUAAAAAUAUAUAUCUG [hsa-mir-4680],0.187,-0.708,-0.189,-1.08,-1.07
UUAAAUGUGUCAUUUAAAAAUUCAG [hsa-mir-1972-1_1972-2],-1.87,-0.0749,0.161,-0.138,-0.257
GCCGCGGAAGAAGGGGAAGCGC [hsa-mir-6720],2.21,1.46,0.61,1.61,1.86
AGGCACAUAUGUGAACAUUGUACCA [hsa-mir-5707],-0.48,0.023,0.00393,0.0876,-0.108
ACCAUAGUCAUAAGUUAGGAGAUGUUAGAGCUGUGAGU [hsa-mir-4286],0.233,-0.464,0.296,-0.108,0.807
AUGCUAAGUCCAUGGGCAAACAU [hsa-mir-5704],-0.176,-0.258,-0.165,-0.088,0.235
CUGUUCAGGACUCCCAAAUUGUACAG [hsa-mir-199b],-0.893,1.12,0.385,1,0.347

Sequence,pull-down binding Z-score [1],pull-down binding Z-score [2],pull-down binding Z-score [3],pull-down binding Z-score [4],pull-down binding Z-score [5]
GAGGUGGGAAGGCUGCCCCAAAUGGCCUCUAACAUCCCUUCCAGUCUCCUCCUC [hsa-mir-6127],-0.236,-0.0543,0.23,0.194,0.919
GAGUUGCUGAGUGGGUUGAUCUC [hsa-mir-6764],0.494,0.17,0.061,0.122,0.652
CUGGGGUUGGAAUGUGACCCCA [hsa-mir-4654],-0.709,0.425,-0.171,0.541,0.687
UAUUGGGCCAAUUCCCCCAAUG [hsa-mir-4781],-1.57,-1.13,-0.791,-1.38,-1.12
CUCAAGUCCUCUAUUUCUUUGAA [hsa-mir-7978],-1.16,-0.712,-0.54,-0.484,0.0517
CCUGCCUGCCCUCCAGGUCAUGUUCCAGUGUCCCACAGAUGCAGCACCACGG [hsa-mir-6075],-0.799,0.0521,0.186,0.616,1.54
GCUUGGAGCCUUGGUAGGGAAGCAAGCUGAGGAGAUAGGA [hsa-mir-7154],1.23,1.22,0.627,1.57,1.92
GUCUUGAUCCCCCACCCCAAGAC [hsa-mir-642b],-1.37,-0.257,-0.299,-0.41,0.091
GUCACAAAUUCAAAUAAAGUGAG [hsa-mir-4693],-1.04,1.05,0.544,1.03,0.598
UUGACCAAUCAUCUUAUUGACUAGA [hsa-mir-6502],-1.52,-0.403,-0.177,-0.471,-0.496
UGUGAGAGCUACUAAGUCUUAUA [hsa-mir-8076],0.772,0.0311,-0.223,-0.162,-0.596
ACAGCCAGUGCUCUCGUCUCCCCUCUGGCUGC [hsa-mir-192],0.589,0.839,0.236,0.925,0.949
UUAUACCUGAUGCUCACGUAUAA [hsa-mir-208a],-0.85,0.398,-0.0463,0.187,-0.742
UGCUGUUGGAGACUCGAUUGUUGGUGACAGCGAAAGAACGAUAACAAA [hsa-mir-3655],-1.76,-0.405,-0.149,0.231,1.04
GUAUGAGUGGUGUGGAGUCUUCAUAA [hsa-mir-9-1],-0.511,0.179,-0.08,0.292,0.298
UGUAUUUUUCAGCAAGGCAAGGGCUUUGAUGUCUUGUA [hsa-mir-8065],-0.314,-0.583,-0.132,-0.402,-0.0538
CCUAGAGUCCAUUCUUUACUCUAGG [hsa-mir-4779],-0.507,-0.699,-0.586,-1.18,-1.28
ACCAAAACACUCAUCGCGG [hsa-mir-1260a],-0.734,-0.138,0.105,-0.188,-0.00378
